According to US20260356955 (published 2026):
Like-named read-outs stand apart in the source and are kept apart here.

T1: cynomolgus KLRB1 on CHO-K1 (cynomolgus)
T1 chain: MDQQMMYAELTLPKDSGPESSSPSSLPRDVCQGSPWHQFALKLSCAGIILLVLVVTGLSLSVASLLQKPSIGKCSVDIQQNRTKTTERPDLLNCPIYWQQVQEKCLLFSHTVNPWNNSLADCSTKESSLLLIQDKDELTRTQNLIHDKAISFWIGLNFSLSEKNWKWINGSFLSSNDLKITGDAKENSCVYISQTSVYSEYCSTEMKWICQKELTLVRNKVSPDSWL

T2: cynomolgus KLRB1 ECD (cynomolgus)
T2 chain: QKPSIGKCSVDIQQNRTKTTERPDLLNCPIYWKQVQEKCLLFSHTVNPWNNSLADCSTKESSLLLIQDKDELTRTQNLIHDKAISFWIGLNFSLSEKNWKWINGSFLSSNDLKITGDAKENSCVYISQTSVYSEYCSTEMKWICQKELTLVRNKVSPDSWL


Experiments:
human KLRB1 ECD [1] = target: human KLRB1 ECD (human); test: SPR
Chain of human KLRB1 ECD (human) (chain, as listed by the source): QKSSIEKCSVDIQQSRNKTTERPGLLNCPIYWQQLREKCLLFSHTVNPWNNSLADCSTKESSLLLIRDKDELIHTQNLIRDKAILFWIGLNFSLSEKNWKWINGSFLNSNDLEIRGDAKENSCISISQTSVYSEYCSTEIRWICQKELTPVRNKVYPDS

human KLRB1 ECD [2] = target: human KLRB1 ECD (human); test: SPR; remark: listed apart in the source
human KLRB1 ECD [3] = target: human KLRB1 ECD (human); test: SPR; remark: listed apart in the source
human KLRB1 on CHO-K1 [4] = target: human KLRB1 on CHO-K1 (human); test: FACS
Chain of human KLRB1 on CHO-K1 (human) (chain, as listed by the source): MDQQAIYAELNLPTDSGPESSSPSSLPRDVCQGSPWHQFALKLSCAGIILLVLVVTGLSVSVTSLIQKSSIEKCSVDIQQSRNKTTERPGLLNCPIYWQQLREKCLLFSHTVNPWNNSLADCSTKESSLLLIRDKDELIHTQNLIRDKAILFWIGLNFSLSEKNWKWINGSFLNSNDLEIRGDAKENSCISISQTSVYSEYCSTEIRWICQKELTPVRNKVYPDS

[5] = target: T1, cynomolgus KLRB1 on CHO-K1; test: FACS
cynomolgus KLRB1 ECD [6] = target: T2, cynomolgus KLRB1 ECD; test: SPR
human KLRB1 ECD [7] = target: human KLRB1 ECD (human); test: SPR; remark: listed apart in the source
human KLRB1 on CHO-K1 [8] = target: human KLRB1 on CHO-K1 (human); test: competition, CLEC2D, FACS
cynomolgus KLRB1 ECD [9] = target: T2, cynomolgus KLRB1 ECD; test: ELISA
human KLRB1 ECD [10] = target: human KLRB1 ECD (human); test: ELISA
human KLRB1 ECD [11] = target: human KLRB1 ECD (human); test: ELISA; remark: listed apart in the source
cynomolgus KLRB1 ECD [12] = target: T2, cynomolgus KLRB1 ECD; test: ELISA
human KLRB1 on CHO-K1 [13] = target: human KLRB1 on CHO-K1 (human); test: FACS; remark: listed apart in the source
human KLRB1 on CHO-K1 [14] = target: human KLRB1 on CHO-K1 (human); test: competition, CLEC2D, FACS; remark: listed apart in the source
[15] = target: T1, cynomolgus KLRB1 on CHO-K1; test: FACS
human KLRB1 ECD [16] = target: human KLRB1 ECD (human); test: SPR; remark: listed apart in the source
human KLRB1 on CHO-K1 [17] = target: human KLRB1 on CHO-K1 (human); test: FACS; remark: listed apart in the source
cynomolgus KLRB1 ECD [18] = target: T2, cynomolgus KLRB1 ECD; test: ELISA
human KLRB1 ECD [19] = target: human KLRB1 ECD (human); test: SPR; remark: listed apart in the source
[20] = target: T1, cynomolgus KLRB1 on CHO-K1; test: FACS
human KLRB1 ECD [21] = target: human KLRB1 ECD (human); test: ELISA; remark: listed apart in the source

Binder	Kd (human KLRB1 ECD [1])	Kd (human KLRB1 ECD [2])	Kd (human KLRB1 ECD [3])	EC50 (human KLRB1 on CHO-K1 [4])	EC50 [5]	Kd (cynomolgus KLRB1 ECD [6])	Kd (human KLRB1 ECD [7])	IC50 (human KLRB1 on CHO-K1 [8])	EC50 (cynomolgus KLRB1 ECD [9])	EC50 (human KLRB1 ECD [10])	other results
Hu22F10G3-2.3 (antibody, V domains shown) VH: QVQLQESGPGLVKPSQTLSLTCTVSGYSLTSDFAWNWIRQHPGKGLEWMGDIRYSGSTDYNPSLKGRVTISRDTSKNQFSLKLSSVTAADTAVYYCARGGYYGYDEGYPMDYWGQGTLVTVSS VL: DIVMTQSPDSLAVSLGERATISCRASESVDVYGNSFMHWYQQKPGQPPKLLIYLAFNLKSGVPDRFSGSGSGTDFTLTISSLQAEDVAVYYCQQNNEDPFTFGQGTKLEIK	0.0966 nM	0.103 nM	0.0688 nM	–	–	–	–	–	–	–	–
Hu22F10G3-2.3-QS (antibody, V domains shown) VH: QVQLQESGPGLVKPSQTLSLTCTVSGYSLTSDFAWNWIRQHPGKGLEWMGDIRYSGSTDYNPSLKGRVTISRDTSKNQFSLKLSSVTAADTAVYYCARGGYYGYDEGYPMDYWGQGTLVTVSS VL: DIVMTQSPDSLAVSLGERATISCRASESVDVYGQSFMHWYQQKPGQPPKLLIYLAFNLKSGVPDRFSGSGSGTDFTLTISSLQAEDVAVYYCQQNNEDPFTFGQGTKLEIK	–	–	0.653 nM	–	–	–	–	–	–	–	–
47A5H2 chimeric (antibody, V domains shown) VH: QVQLQQPGAELVRPGASVKLSCKGSGYSFTGYWMHWVKQRPGQGLEWIGMIHPSDSETRLNQKFKDKATLTVDKSSSTTYMQLSSPTSEDSAVYYCASEGLRRGSFAYWGQGTLVTVSA VL: not shown	–	–	–	1.84 nM	2.59 nM	6.61 nM	0.712 nM	2.54 nM	0.0182 nM	0.0221 nM	Kd (human KLRB1 ECD [16]): 0.306 nM
22F10G3 chimeric (antibody, V domains shown) VH: DVQLQESGPGQVKPSQSLSLTCTVTGYSLTSDFAWNWIRQFPGNRLEWMGDIRYSGSTDYNPSLKGRSSITRDTSKNQFFLQLNSVTTEDTATYYCARGGYYGYDEGYPMDYWGQGTSVTVSS VL: NIVLTQSPASLAVSLGQRATISCRASESVDVYGNSFMHWYQQKTGQPPKLLIYLAFNLKSGVPARFSGSGSRTDFTLTIDPVEADDAATYYCQQNNEDPFTFGSGTKLEIK	0.0665 nM	0.0429 nM	–	–	–	–	–	–	–	–	–
Hu50A8F2-04 (antibody, V domains shown) VH: QVQLVQSGAEVKKPGASVKVSCKASGYTFIDYYINWVRQAPGQGLEWMGWIFPGSGHTKYNENFKGRVTMTRDTSTSTVYMELSSLRSEDTAVYYCARGDRSALGYFDYWGQGTTVTVSS VL: DIQLTQSPSSLSASVGDRVTITCTASSSVSSTYLHWYQQKPGKSPKLLIYSTSNLASGVPSRFSGSGSGTDYTLTISSLQPEDAATYYCHQYHRSPLTFGQGTKLEIK	–	–	–	–	–	–	–	–	–	–	EC50 (human KLRB1 ECD [11]): 0.033 nM; EC50 (human KLRB1 on CHO-K1 [17]): 5.45 nM; binding result (cynomolgus KLRB1 ECD [18]): no binding; Kd (human KLRB1 ECD [19]): 0.693 nM; EC50 (human KLRB1 on CHO-K1 [13]): 6.81 nM; binding result [20]: no binding; EC50 (human KLRB1 ECD [21]): 0.0201 nM

Now from value to binder, other results behind:

Kd (human KLRB1 ECD [1])	Kd (human KLRB1 ECD [2])	Kd (human KLRB1 ECD [3])	EC50 (human KLRB1 on CHO-K1 [4])	EC50 [5]	Kd (cynomolgus KLRB1 ECD [6])	Kd (human KLRB1 ECD [7])	IC50 (human KLRB1 on CHO-K1 [8])	EC50 (cynomolgus KLRB1 ECD [9])	EC50 (human KLRB1 ECD [10])	Binder	other results
0.12 nM	0.129 nM	–	–	–	–	–	–	–	–	Hu22F10G3-3.4 (antibody, V domains shown) VH: QVQLQESGPGLVKPSQTLSLTCTVSGYSLTSDFAWNWIRQHPGKGLEWMGDIRYSGSTDYNPSLKGRSTISRDTSKNQFSLKLSSVTAADTAVYYCARGGYYGYDEGYPMDYWGQGTLVTVSS VL: DIVMTQSPDSLAVSLGERATISCRASESVDVYGNSFMHWYQQKPGQPPKLLIYLAFNLKSGVPARFSGSGSGTDFTLTISSLQAEDVATYYCQQNNEDPFTFGQGTKLEIK	–
–	–	0.14 nM	–	–	–	–	–	–	–	Hu22F10G3-2.3-NA (antibody, V domains shown) VH: QVQLQESGPGLVKPSQTLSLTCTVSGYSLTSDFAWNWIRQHPGKGLEWMGDIRYSGSTDYNPSLKGRVTISRDTSKNQFSLKLSSVTAADTAVYYCARGGYYGYDEGYPMDYWGQGTLVTVSS VL: DIVMTQSPDSLAVSLGERATISCRASESVDVYGNAFMHWYQQKPGQPPKLLIYLAFNLKSGVPDRFSGSGSGTDFTLTISSLQAEDVAVYYCQQNNEDPFTFGQGTKLEIK	–
0.124 nM	0.134 nM	–	–	–	–	–	–	–	–	Hu22F10G3-1.1 (antibody, V domains shown) VH: QVQLQESGPGLVKPSQTLSLTCTVSGYSLTSDFAWNWIRQHPGKGLEWIGDIRYSGSTDYNPSLKGRVTISVDTSKNQFSLKLSSVTAADTAVYYCARGGYYGYDEGYPMDYWGQGTLVTVSS VL: DIVMTQSPDSLAVSLGERATINCRASESVDVYGNSFMHWYQQKPGQPPKLLIYLAFNLKSGVPDRFSGSGSGTDFTLTISSLQAEDVAVYYCQQNNEDPFTFGQGTKLEIK	–
–	–	–	2.35 nM	10.8 nM	3.25 nM	1.04 nM	2.32 nM	0.0108 nM	0.0134 nM	Hu47A5H2-07 (antibody, V domains shown) VH: QVQLVQSGAEVKKPGASVKVSCKASGYSFTGYWMHWVRQAPGQGLEWMGMIHPSDSETRLNQKFKDRVTMTVDTSTSTVYMELSSLRSEDTAVYYCASEGLRRGSFAYWGQGTLVTVSS VL: DIVLTQSPDSLAVSLGERATINCRASESVDNYGMTFMSWFQQKPGQPPKLLIYAASNQGSGVPDRFSGSGSGTDFTLTISSLQAEDVAVYYCQQSKEVPYTFGQGTKLEIK	–
–	–	–	1.6 nM	~1.77 nM	1.94 nM	0.639 nM	1.97 nM	0.01 nM	0.0238 nM	Hu47A5H2-11 (antibody, V domains shown) VH: QVQLVQSGAEVKKPGASVKVSCKASGYSFTGYWMHWVRQAPGQGLEWMGMIHPSDSETRLNQKFKDRVTMTVDKSTSTVYMELSSLRSEDTAVYYCASEGLRRGSFAYWGQGTLVTVSS VL: DIVLTQSPDSLAVSLGERATINCRASESVDNYGMTFMSWFQQKPGQPPKLLIYAASNQGSGVPDRFSGSGSGTDFTLTISSLQAEDVAVYYCQQSKEVPYTFGQGTKLEIK	EC50 (human KLRB1 ECD [11]): 0.016 nM; EC50 (cynomolgus KLRB1 ECD [12]): 0.024 nM; EC50 (human KLRB1 on CHO-K1 [13]): 3.01 nM; IC50 (human KLRB1 on CHO-K1 [14]): 3.61 nM; EC50 [15]: 14.9 nM
